Test results published in US20190382504A1 (EUREKA THERAPEUTICS, published 2019).
Changes are numbered by the printed parent chain.

B1: ESO157 BsAb #116 (anti-ESO157/HLA-A*02:01 scFv x anti-human CD3epsilon scFv, single chain) (bispecific antibody)
chain: QSVLTQPPSVSAAPGQKVTISCSGSSSNIGNNYVSWYQQLPGTAPKLLIYDNNKRPSGIPDRFSGSKSGTSATLGITGLQTGDEADYYCGTWDSSLSAEVFGTGTKVTVLGSRGGGGSGGGGSGGGGSLEMAQVQLVQSGPEVKKPGASMKVSCKASGYTFTKYGISWVRQAPGQGLEWMGWISADSGKTSYAQNLQGRVSLTIDTSTATAYMELRSLRSDDTAVYYCARDDDSWGQGTLVTVSS
B2: phage clone 35-20, affinity maturation variant of clone #35 (scFv, V domains shown)
VH: QVHLVQSGAEVKKPGSSVKVSCKASGDTFSSYYISWVRQAPGQGLEWMGRIIPILGIANYAQKYQGRVTLSADKSTSTSYMELNSLRSEDTAVYYCARDWSYSIDYWGQGTLVTVSS
VL: QSVVTQPPSVSAAPGQKVTISCSGSSSNIGNNYVSWYQQLPGTAPKLLIYDNNKRPSGIPDRFSGSKSGTSATLGITGLQTGDEADYYCGTWDSSLSAWVFGGGTKLTVL
B3: phage clone 35-14, affinity maturation variant of clone #35 (scFv, V domains shown)
VH: B2 VH with H3Q, D99E
VL: B2 VL with K46E
B4: phage clone 35-16, affinity maturation variant of clone #35 (scFv, V domains shown)
VH: B2 VH with H3Q, G26E, I54T
VL: QSVVTQPPSVSAAPGQKVTISCSGSSSNIGNNYVSWYQQLPGTAPKLLIYDNNKRPSGIPGRFSGSKSGTSATLGITGLQTGDEADYYCGTWDSSLSAWVFGGGTKLTVLG
B5: phage clone 35-19, affinity maturation variant of clone #35 (scFv, V domains shown)
VH: B2 VH with V2E, H3Q
VL: B4 VL with S26I, K54M, G61D
notes: also called variant 35-19
B6: phage clone 35-15, affinity maturation variant of clone #35 (scFv, V domains shown)
VH: B2 VH with H3Q, R87S, R98L
VL: B4 VL with G61D, G65A, G82R
B7: phage clone 35-12, affinity maturation variant of clone #35 (scFv, V domains shown)
VH: B2 VH with H3P, K19R, S31N, Y33S
VL: B4 VL with G61D, A72T
B8: phage clone 35-2, affinity maturation variant of clone #35 (scFv, V domains shown)
VH: B2 VH with H3Q
VL: B4 VL with K54E, G61D
B9: phage clone 35-3, affinity maturation variant of clone #35 (scFv, V domains shown)
VH: B2 VH with H3Q, D99E
VL: B4 VL with G61D, Q80R
B10: phage clone 35-8, affinity maturation variant of clone #35 (scFv, V domains shown)
VH: B2 VH with H3P, S85N
VL: B2 VL
B11: phage clone #35, anti-ESO157/HLA-A*02:01 scFv displayed on phage (scFv, V domains shown)
VH: B2 VH with H3Q, Y33S
VL: B4 VL with G61D
notes: also called parental phage clone #35
B12: phage clone #146, anti-ESO157/HLA-A*02:01 scFv displayed on phage (scFv, V domains shown)
VH: EVQLVQSGAEVKKPGASVKVSCKVSGYTLTDLPMHWVRQAPGKGLEWMGGFDPEDGEIIYAQKFQGRVTMTEDTFTDTAYVELSSLRSEDTAVYYCARYVPYVSYSDSWGQGTLVTVSS
VL: not shown
B13: phage clone #76, anti-ESO157/HLA-A*02:01 scFv displayed on phage (scFv, V domains shown)
VH: EVQLVQSGAEVKKPGSSVKVSCKASGGTFSSYAISWVRQAPGQGLEWMGGIIPIFGTANYAQKFQGRVTITADESTSTAYMELSSLRSEDTAVYYCARYDSYVYDEWGQGTLVTVSS
VL: QSVVTQPPSLSGAPGQRVTISCNGSGSNIGAGYDVHWYQQLPGTAPKLLIYGNSNRPSGVPDRFSGSKSGTSASLAITGLQAEDEADYYCQSYDSSLSGWGIFGGGTKLTVLG
B14: phage clone #52, anti-ESO157/HLA-A*02:01 scFv displayed on phage (scFv, V domains shown)
VH: QVQLVQSGAEVKKPGASVKVSCKASGYTFTSYGISWVRQAPGQGLEWMGWISAYNGNTNYAQKLQGRVTMTTDTSTSTAYMELRSLRSDDTAVYYCARYSGYYAGDSWGQGTLVTVSS
VL: QSVLTQPPSVSGAPGQRVTISCTGSSSNIGAGYDVHWYQQLPGTAPKLLIYGDTNRPSGVPDRISGSKSGTSASLAITGLQAEDEADYYCQSYDSNLYTYVFGTGTKVTVLG
B15: phage clone #148, anti-ESO157/HLA-A*02:01 scFv displayed on phage (scFv, V domains shown)
VH: EVQLVQSGAEVKKPGASVKVSCKASGGTFSSYAISWVRQAPGQGLEWMGGIIPIFGTANYAQKFQGRVTITADKSTSTAYMELSSLRSEDTAVYYCARSYWSWTPYDPWGQGTLVTVSS
VL: LPVLTQPPSVSVAPGKTARITCGGNNIGSKSVHWYQQKPGQAPVLVIYYDSDRPSGIPERFSGSNSGNTATLTISRVEAGDEADYYCQVWDSSSDHYVFGTGTKVTVLG

Each binder was assayed against biotinylated recombinant ESO157/HLA-A*02:02 complex (human) (assay: BLI (Octet QK), biotinylated pMHC on streptavidin sensor, BsAb 10 ug/mL).

Binder | Kd
B1 | 1.8 nM

The binders below were run against biotinylated recombinant ESO157/HLA-A*02:06 complex (human) in the same assay as above.

Binder | Kd
B1 | 0.8 nM

These binders were tested against T1, ESO157 homolog 4 peptide (…)/HLA-A*02:01 on T2 cells (human) (assay: FACS, phage on T2 cells, 50 ug/ml peptide;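 also: binding of phage clones to peptide/MHC complexes detected by flow cytometry after staining with an anti-M13 antibody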).
T1 construct: also called ESO157 H4

Binder | MFI
B2 | 20.6
B3 | 19.5
B4 | 19.3
B5 | 21.6
B6 | 33.8
B7 | 18.7
B8 | 21
B9 | 19
B10 | 19.6

What follows are binders tested against T2, ESO157 homolog 5 peptide (…)/HLA-A*02:01 on T2 cells (human) (assay: FACS, phage on T2 cells, 50 ug/ml peptide;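 also: binding of phage clones to peptide/MHC complexes detected by flow cytometry after staining with an anti-M13 antibody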).
T2 construct: also called ESO157 H5

Binder | MFI
B11 | 13.4
B2 | 19
B3 | 18.8
B4 | 18.7
B5 | 60.2
B6 | 31.8
B7 | 17.7
B8 | 18.8
B9 | 18.5
B10 | 17.8

These binders were tested against T3, ESO157 homolog 3 peptide (…)/HLA-A*02:01 on T2 cells (human) (assay: FACS, phage on T2 cells, 50 ug/ml peptide;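 also: binding of phage clones to peptide/MHC complexes detected by flow cytometry after staining with an anti-M13 antibody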).
T3 construct: also called ESO157 H3

Binder | MFI
B2 | 20.8
B3 | 20
B4 | 18.7
B5 | 21.7
B6 | 35.4
B7 | 18.6
B9 | 18.9

What follows are binders tested against T4, ESO157 homolog 1 peptide (…)/HLA-A*02:01 on T2 cells (human) (assay: FACS, phage on T2 cells, 50 ug/ml peptide;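 also: binding of phage clones to peptide/MHC complexes detected by flow cytometry after staining with an anti-M13 antibody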).
T4 construct: also called ESO157 H1

Binder | MFI
B2 | 21
B3 | 20.8
B5 | 20.7
B6 | 36.2
B7 | 19.3
B9 | 18.8

What follows are binders tested against T5, ESO157 homolog 2 peptide (…)/HLA-A*02:01 on T2 cells (human) (assay: FACS, phage on T2 cells, 50 ug/ml peptide).
T5 construct: also called ESO157 H2

Binder | MFI
B11 | 17.6
B3 | 19.8
B5 | 21.9
B7 | 19.2
B8 | 20.8
B9 | 18.4
B10 | 18.7

What follows are binders tested against ESO157 A1 peptide (…)/HLA-A*02:01 complex on T2 cells (human) (assay: FACS, peptide-pulsed T2 cells).

Binder | MFI
B12 | 9300
B13 | 14600
B14 | 14900
B15 | 27700
B11 | 42400

What follows are binders tested against ESO157 A4 peptide (…)/HLA-A*02:01 complex on T2 cells (human) (assay: FACS, peptide-pulsed T2 cells).

Binder | MFI
B12 | 3200
B13 | 191
B14 | 4740
B15 | 240
B11 | 155

These binders were tested against ESO157 A8 peptide (…)/HLA-A*02:01 complex on T2 cells (human) (assay: FACS, peptide-pulsed T2 cells).

Binder | MFI
B12 | 18600
B13 | 12700
B14 | 19200
B15 | 58300

Each binder was assayed against T6, ESO157 wild type peptide (…)/HLA-A*02:01 complex on cells (human) (assay: FACS, peptide-pulsed T2 cells).
T6 construct: also called ESO157-loaded T2 cells

Binder | MFI
B13 | 7460
B14 | 14500
B11 | 17500

What follows are binders tested against ESO157 A5 peptide (…)/HLA-A*02:01 complex on T2 cells (human) (assay: FACS, peptide-pulsed T2 cells).

Binder | MFI
B12 | 180
B13 | 160
B14 | 107
B15 | 14200
B11 | 163

These binders were tested against ESO157 A3 peptide (…)/HLA-A*02:01 complex on T2 cells (human) (assay: FACS, peptide-pulsed T2 cells).

Binder | MFI
B12 | 181
B13 | 42900
B14 | 17700
B15 | 52900
B11 | 10200

Each binder was assayed against ESO157 A7 peptide (…)/HLA-A*02:01 complex on T2 cells (human) (assay: FACS, peptide-pulsed T2 cells).

Binder | MFI
B12 | 333
B13 | 6200
B14 | 9890
B15 | 62400
B11 | 419

Each binder was assayed against ESO157 A6 peptide (…)/HLA-A*02:01 complex on T2 cells (human) (assay: FACS, peptide-pulsed T2 cells).

Binder | MFI
B14 | 1880
B15 | 17500

Each binder was assayed against T7, HLA-A*02:01 on T2 cells without peptide loading (human) (assay: FACS, peptide-pulsed T2 cells).
T7 construct: TAP-deficient T2 cells, no peptide added; also called No peptide; T2 cells with no peptide loaded

Binder | MFI
B12 | 132
B13 | 131
B14 | 113
B15 | 208

Each binder was assayed against T8, Bio-C9V mutant (assay: phage ELISA: streptavidin plate coated with biotinylated peptide/HLA-A*02:01 monomer, phage detected with HRP-conjugated anti-M13 antibody, absorbance at 450 nm).
T8 construct: also called biotinylated ESO157 C9V/HLA-A*02:01 complex monomer

Binder | binding result
B12 | binds
B13 | binds
B14 | binds
B15 | binds
